Reference: patent publication US20220177583A1

Tests used:
[1] = biological target: human CLDN6 fused to GFP, expressed on engineered HEK293T cells (human) (UniProt P56747); experiment: FACS on 293T CLDN6 mGFP Clone A11 cells, scFv followed by secondary antibody; number from the data table under the bars
[2] = biological target: human CLDN6 fused to GFP, expressed on engineered HEK293T cells (human) (UniProt P56747); experiment: KinExA 4000, cell-based equilibrium titration; Cell Model HEK293T CLDN6-mGFP A11, Cells Detached by Versene; Equilibrium Curves 500pM, 10nM
[3] = biological target: human CLDN6 fused to GFP, expressed on engineered HEK293T cells (human) (UniProt P56747); experiment: FACS, 293T clone with human CLDN6, 0.3 ug Ab
[4] = biological target: human CLDN6 fused to GFP, expressed on engineered HEK293T cells (human) (UniProt P56747); experiment: FACS, 293T clone with human CLDN6, 1.5 ug Ab

B1: AB3-7 scFv (scFv)
scFv: DIQMTQSPSSLSASVGDRVTITCRISENIYSYLAWYQQKPGKAPKLLVYNAKILVEGVPSRFSGSGSGTDFTLTISSLQPEDFGTYYCQHHYTVPWTFGQGTKLEIKGGGGSGGGGSGGGGSEVQLLESGGGLVQPGGSMRLSCAASGFTFSNYWMNWVRQAPGKGLEWVAQIRLKSDNYATHYADSVKGRFTISRDDSKNTVYLQMNSLRAEDTGVYYCNDGPPSGSWGQGTLLTVSS
- FL4H Singlets in Viable cells [1]: 132000

B2: AB1-11 scFv (scFv)
scFv: DIQLTQSPSSLSASVGDRVTMTCTASSSVSSTYFHWYQQKPGKAPKLWIYSTSNLASGVPSRFSGSGSGTDYTLTISSMQPEDAATYYCHQYHRSPLTFGQGTKLEIKGGGGSGGGGSGGGGSQVQLVQSGAEVKKPGASVKMSCKASGYTFTTYTMHWVRQAPGQGLEWIGFINPSSGYTDYAQKFQGRVTLTADKSTSTVYMELSSLRSEDTAVYYCANGDYYVAYWGQGTLVTVSS
- FL4H Singlets in Viable cells [1]: 125000

B3: AB3-7 conjugated to MC-GGFG-MMAE (D4 technology) (antibody, V domains shown)
VH: EVQLLESGGGLVQPGGSMRLSCAASGFTFSNYWMNWVRQAPGKGLEWVAQIRLKSDNYATHYADSVKGRFTISRDDSKNTVYLQMNSLRAEDTGVYYCNDGPPSGSWGQGTLLTVSS
VL: DIQMTQSPSSLSASVGDRVTITCRISENIYSYLAWYQQKPGKAPKLLVYNAKILVEGVPSRFSGSGSGTDFTLTISSLQPEDFGTYYCQHHYTVPWTFGQGTKLEIK
modifications: MC-GGFG-MMAE conjugated to the antibody (D4); sites not stated
- Kd [2]: 1.01 nM

B4: AB3-7 conjugated to CL2A-SN38 (conventional) (antibody, V domains shown)
VH: EVQLLESGGGLVQPGGSMRLSCAASGFTFSNYWMNWVRQAPGKGLEWVAQIRLKSDNYATHYADSVKGRFTISRDDSKNTVYLQMNSLRAEDTGVYYCNDGPPSGSWGQGTLLTVSS
VL: DIQMTQSPSSLSASVGDRVTITCRISENIYSYLAWYQQKPGKAPKLLVYNAKILVEGVPSRFSGSGSGTDFTLTISSLQPEDFGTYYCQHHYTVPWTFGQGTKLEIK
modifications: CL2A-SN38 conjugated to the antibody, heterogeneous (conventional); sites not stated
- Kd [2]: 1.91 nM

B5: AB3-7 conjugated to CL2A-SN38 (D4 technology) (antibody, V domains shown)
VH: EVQLLESGGGLVQPGGSMRLSCAASGFTFSNYWMNWVRQAPGKGLEWVAQIRLKSDNYATHYADSVKGRFTISRDDSKNTVYLQMNSLRAEDTGVYYCNDGPPSGSWGQGTLLTVSS
VL: DIQMTQSPSSLSASVGDRVTITCRISENIYSYLAWYQQKPGKAPKLLVYNAKILVEGVPSRFSGSGSGTDFTLTISSLQPEDFGTYYCQHHYTVPWTFGQGTKLEIK
modifications: CL2A-SN38 conjugated to the antibody (D4); sites not stated
- Kd [2]: 2.87 nM

B6: AB3-7 conjugated to MC-GGFG-DXD (antibody, V domains shown)
VH: EVQLLESGGGLVQPGGSMRLSCAASGFTFSNYWMNWVRQAPGKGLEWVAQIRLKSDNYATHYADSVKGRFTISRDDSKNTVYLQMNSLRAEDTGVYYCNDGPPSGSWGQGTLLTVSS
VL: DIQMTQSPSSLSASVGDRVTITCRISENIYSYLAWYQQKPGKAPKLLVYNAKILVEGVPSRFSGSGSGTDFTLTISSLQPEDFGTYYCQHHYTVPWTFGQGTKLEIK
modifications: MC-GGFG-DXD conjugated to the antibody; sites not stated
- Kd [2]: 3.01 nM

B7: AB3-7 conjugated to MC-VC-PAB-DXD (antibody, V domains shown)
VH: EVQLLESGGGLVQPGGSMRLSCAASGFTFSNYWMNWVRQAPGKGLEWVAQIRLKSDNYATHYADSVKGRFTISRDDSKNTVYLQMNSLRAEDTGVYYCNDGPPSGSWGQGTLLTVSS
VL: DIQMTQSPSSLSASVGDRVTITCRISENIYSYLAWYQQKPGKAPKLLVYNAKILVEGVPSRFSGSGSGTDFTLTISSLQPEDFGTYYCQHHYTVPWTFGQGTKLEIK
modifications: MC-VC-PAB-DXD conjugated to the antibody; sites not stated
- Kd [2]: 3.42 nM

B8: AB3-7 (antibody, V domains shown)
VH: EVQLLESGGGLVQPGGSMRLSCAASGFTFSNYWMNWVRQAPGKGLEWVAQIRLKSDNYATHYADSVKGRFTISRDDSKNTVYLQMNSLRAEDTGVYYCNDGPPSGSWGQGTLLTVSS
VL: DIQMTQSPSSLSASVGDRVTITCRISENIYSYLAWYQQKPGKAPKLLVYNAKILVEGVPSRFSGSGSGTDFTLTISSLQPEDFGTYYCQHHYTVPWTFGQGTKLEIK
- FACS signal [3]: 106000
- FACS signal [4]: 169000
- Kd [2]: 1.13 nM
